Positions count from the first letter of the chain named.
Experiments:
NRF1 DD-DBD [1] = molecular target: T1, NRF1 DD-DBD (human, UniProt Q16656 54-284); experiment: ITC; ITC: 20 mM Hepes pH 7.0, 150 mM NaCl, 25 C; protein 20-30 uM, dsDNA 500-600 uM; details: protein: recombinant, tags: N-terminal His6 removed by TEV (pET28-MHL), chain copies: 2, blunt
T1 sequence: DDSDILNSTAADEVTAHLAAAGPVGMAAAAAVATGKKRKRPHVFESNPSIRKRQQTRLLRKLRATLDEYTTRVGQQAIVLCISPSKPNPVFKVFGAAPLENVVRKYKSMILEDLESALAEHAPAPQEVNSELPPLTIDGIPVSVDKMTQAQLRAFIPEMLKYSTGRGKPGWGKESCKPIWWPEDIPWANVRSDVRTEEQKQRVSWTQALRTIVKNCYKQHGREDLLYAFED

[2] = molecular target: the molecule itself; experiment: SEC-MALS; HPLC-MALS, WTC-015S5 column, 50 mM PBS and 150 mM NaCl, 0.5 mL/min; oligomeric state of NRF1 fragments without DNA
NRF1 DD-DBD [3] = molecular target: T1, NRF1 DD-DBD; experiment: ITC; mean of listed repeats 0.34 and 0.25; ITC: 20 mM Hepes pH 7.0, 150 mM NaCl, 25 C; protein 20-30 uM, dsDNA 500-600 uM; details: protein: recombinant; tags: N-terminal His6 removed by TEV (pET28-MHL); chain copies: 2; blunt; self-complementary
NRF1 DBD [4] = molecular target: T2, NRF1 DBD (human, UniProt Q16656 177-284); experiment: ITC; ITC: 20 mM Hepes pH 7.0, 150 mM NaCl, 25 C; protein 20-30 uM, dsDNA 500-600 uM; details: protein: recombinant; tags: N-terminal His6 removed by TEV (pET28-MHL); chain copies: 2; blunt; self-complementary
T2 sequence: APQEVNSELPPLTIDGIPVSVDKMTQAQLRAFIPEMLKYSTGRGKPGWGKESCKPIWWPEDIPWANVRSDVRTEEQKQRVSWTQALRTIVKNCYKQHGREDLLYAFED

NRF1 N242A = molecular target: T3, NRF1 N242A (human, UniProt Q16656 54-284, N242A); experiment: ITC; mean of repeats 1.40, 1.89, 1.89; ITC: 20 mM Hepes pH 7.0, 150 mM NaCl, 25 C; protein 20-30 uM, dsDNA 500-600 uM; details: protein: recombinant; tags: N-terminal His6 removed by TEV; chain copies: 2; blunt; self-complementary
T3 sequence: T1 sequence with N189A

NRF1 T109A = molecular target: T4, NRF1 T109A (human, UniProt Q16656 54-284, T109A); experiment: ITC; mean of repeats 2.80, 2.36, 1.72; ITC: 20 mM Hepes pH 7.0, 150 mM NaCl, 25 C; protein 20-30 uM, dsDNA 500-600 uM; details: protein: recombinant; tags: N-terminal His6 removed by TEV; chain copies: 2; blunt; self-complementary
T4 sequence: T1 sequence with T56A

NRF1 DD = molecular target: T5, NRF1 DD (human, UniProt Q16656 54-177); experiment: ITC; repeats 1.86, 1.78, 1.96; ITC: 20 mM Hepes pH 7.0, 150 mM NaCl, 25 C; protein 20-30 uM, dsDNA 500-600 uM; details: protein: recombinant; tags: N-terminal His6 removed by TEV (pET28-MHL); chain copies: 2; blunt; self-complementary
T5 sequence: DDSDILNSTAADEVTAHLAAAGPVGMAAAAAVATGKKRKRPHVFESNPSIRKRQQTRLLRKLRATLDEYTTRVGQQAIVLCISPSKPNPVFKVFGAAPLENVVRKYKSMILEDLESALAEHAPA

NRF1 T109D = molecular target: T6, NRF1 T109D (human, UniProt Q16656 54-284, T109D); experiment: ITC; mean of repeats 1.62, 1.87, 1.30; ITC: 20 mM Hepes pH 7.0, 150 mM NaCl, 25 C; protein 20-30 uM, dsDNA 500-600 uM; details: protein: recombinant; tags: N-terminal His6 removed by TEV; chain copies: 2; blunt; self-complementary
T6 sequence: T1 sequence with T56D

NRF1 R206A = molecular target: T7, NRF1 R206A (human, UniProt Q16656 54-284, R206A); experiment: ITC; mean of repeats 5.60, 5.60, 4.40; ITC: 20 mM Hepes pH 7.0, 150 mM NaCl, 25 C; protein 20-30 uM, dsDNA 500-600 uM; details: protein: recombinant; tags: N-terminal His6 removed by TEV; chain copies: 2; blunt; self-complementary
T7 sequence: T1 sequence with R153A

NRF1 R244A = molecular target: T8, NRF1 R244A (human, UniProt Q16656 54-284, R244A); experiment: ITC; mean of repeats 6.45, 8.62, 4.92; ITC: 20 mM Hepes pH 7.0, 150 mM NaCl, 25 C; protein 20-30 uM, dsDNA 500-600 uM; details: protein: recombinant; tags: N-terminal His6 removed by TEV; chain copies: 2; blunt; self-complementary
T8 sequence: T1 sequence with R191A

NRF1 DBD [5] = molecular target: T2, NRF1 DBD; experiment: crystal structure; ITC: 20 mM Hepes pH 7.0, 150 mM NaCl, 25 C; protein 20-30 uM, dsDNA 500-600 uM; details: protein: recombinant; tags: N-terminal His6 removed by TEV (pET28-MHL); chain copies: 2; blunt; self-complementary

B1: GtGC (dsDNA)
DNA 1: ATGTGCATGCGCAT
DNA 2: ATGCGCATGCACAT
NRF1 DD-DBD [1]
  Kd: 1810 ± 250 nM

B2: ACACTT spacer (dsDNA)
DNA 1: ATGCGCACACTTGCGCAT
DNA 2: ATGCGCAAGTGTGCGCAT
NRF1 DD-DBD [1]
  Kd: 4360 ± 290 nM

B3: CG central (dsDNA)
DNA 1: ATGCGCCGGCGCAT
DNA 2: ATGCGCCGGCGCAT
NRF1 DD-DBD [1]; self-complementary
  Kd: 1090 ± 60 nM

B4: GCGa (dsDNA)
DNA 1: ATGCGAATGCGCAT
DNA 2: ATGCGCATTCGCAT
NRF1 DD-DBD [1]
  Kd: 3750 ± 690 nM

B5: GaGC (dsDNA)
DNA 1: ATGAGCATGCGCAT
DNA 2: ATGCGCATGCTCAT
NRF1 DD-DBD [1]
  Kd: 1380 ± 150 nM

B6: ACACTCT spacer (dsDNA)
DNA 1: ATGCGCACACTCTGCGCAT
DNA 2: ATGCGCAGAGTGTGCGCAT
NRF1 DD-DBD [1]
  Kd: 4310 ± 280 nM

B7: atta/GCGC (dsDNA)
DNA 1: ATATTAATGCGCAT
DNA 2: ATGCGCATTAATAT
NRF1 DD-DBD [1]
  Kd: 3760 ± 230 nM

B8: NRF1 (aa 54–177) (domain or fragment, human, UniProt Q16656 54-177, looked up)
chain: T5 sequence
notes: pET28-MHL vector; His6 tag removed with TEV protease; also called NRF1 DD; dimerization domain; source: E. coli BL21 (DE3), purified (Ni-NTA, anion exchange, gel filtration); not shown: His6, N-terminal, cleaved
[2]
  stoichiometry N: 2

B9: GCGt (dsDNA)
DNA 1: ATGCGTATGCGCAT
DNA 2: ATGCGCATACGCAT
NRF1 DD-DBD [1]
  Kd: 1250 ± 110 nM

B10: NRF1 (aa 54–284) (domain or fragment, human, UniProt Q16656 54-284, looked up)
chain: T1 sequence
notes: pET28-MHL vector; His6 tag removed with TEV protease; also called Nuclear respiratory factor 1; NRF1 dimer; source: E. coli BL21 (DE3), purified (Ni-NTA, anion exchange, gel filtration); not shown: His6, N-terminal, cleaved
[2]
  stoichiometry N: 2

B11: GCaC (dsDNA)
DNA 1: ATGCACATGCGCAT
DNA 2: ATGCGCATGTGCAT
NRF1 DD-DBD [1]
  Kd: 660 ± 40 nM

B12: NRF1 (aa 98–177) (domain or fragment, human, UniProt Q16656 98-177, looked up)
chain: ESNPSIRKRQQTRLLRKLRATLDEYTTRVGQQAIVLCISPSKPNPVFKVFGAAPLENVVRKYKSMILEDLESALAEHAPA
notes: pET28-MHL vector; His6 tag removed with TEV protease; source: E. coli BL21 (DE3), purified (Ni-NTA, anion exchange, gel filtration); not shown: His6, N-terminal, cleaved
[2]
  stoichiometry N: 2

B13: ACGT spacer (dsDNA)
DNA 1: ATGCGCACGTGCGCAT
DNA 2: ATGCGCACGTGCGCAT
NRF1 DD-DBD [1]; self-complementary
  Kd: 910 ± 40 nM

B14: GCGt/aCGC (dsDNA)
DNA 1: ATGCGTATACGCAT
DNA 2: ATGCGTATACGCAT
NRF1 DD-DBD [1]; self-complementary
  Kd: 1310 ± 180 nM

B15: GCaC/GtGC (dsDNA)
DNA 1: ATGCACATGTGCAT
DNA 2: ATGCACATGTGCAT
NRF1 DD-DBD [1]; self-complementary
  Kd: 4430 ± 550 nM

B16: 20 bp DNA (dsDNA)
DNA 1: GCGATGCGCATGCGCATCGC
DNA 2: GCGATGCGCATGCGCATCGC
NRF1 DD-DBD [3]
  Kd: ~300 nM

B17: ACACT spacer (dsDNA)
DNA 1: ATGCGCACACTGCGCAT
DNA 2: ATGCGCAGTGTGCGCAT
NRF1 DD-DBD [1]
  Kd: 2320 ± 480 nM

B18: 14 bp AT central (WT) (dsDNA)
DNA 1: ATGCGCATGCGCAT
DNA 2: ATGCGCATGCGCAT
NRF1 DD-DBD [1]; self-complementary
  Kd: 310 ± 50 nM
NRF1 DBD [4]
  Kd: ~1400 nM
NRF1 N242A
  Kd: ~1730 nM
NRF1 T109A
  Kd: ~2290 nM
NRF1 DD
  Kd: ~1800 nM
NRF1 T109D
  Kd: ~1600 nM
NRF1 R206A
  Kd: ~5200 nM
NRF1 R244A
  Kd: ~6660 nM

B19: GCtC (dsDNA)
DNA 1: ATGCTCATGCGCAT
DNA 2: ATGCGCATGAGCAT
NRF1 DD-DBD [1]
  Kd: 2230 ± 170 nM

B20: 16 bp DNA (dsDNA)
DNA 1: GGTGCGCATGCGCACC
DNA 2: GGTGCGCATGCGCACC
NRF1 DBD [5]
  binding result: binds

B21: A spacer (dsDNA)
DNA 1: ATGCGCAGCGCAT
DNA 2: ATGCGCTGCGCAT
NRF1 DD-DBD [1]
  Kd: 1620 ± 110 nM

B22: ACT spacer (dsDNA)
DNA 1: ATGCGCACTGCGCAT
DNA 2: ATGCGCAGTGCGCAT
NRF1 DD-DBD [1]
  Kd: 1960 ± 270 nM

B23: no spacer (dsDNA)
DNA 1: ATGCGCGCGCAT
DNA 2: ATGCGCGCGCAT
NRF1 DD-DBD [1]; self-complementary
  Kd: 570 ± 20 nM

B24: aCGC (dsDNA)
DNA 1: ATACGCATGCGCAT
DNA 2: ATGCGCATGCGTAT
NRF1 DD-DBD [1]
  Kd: 1270 ± 270 nM

B25: tCGC (dsDNA)
DNA 1: ATTCGCATGCGCAT
DNA 2: ATGCGCATGCGAAT
NRF1 DD-DBD [1]
  Kd: 2110 ± 800 nM
